Data published in patent US8080523.
Like-named read-outs stand apart in the source and are kept apart here.

Experiments:
Kv1.6 [1] = assay: patch-clamp, block of channel current
Kv1.2 [2] = assay: patch-clamp, block of channel current
Kv3.2 [3] = assay: patch-clamp, block of channel current
Kv1.6 [4] = assay: patch-clamp, ratio of Kd values; reference margatoxin on Kv1.3
Kv1.2 [5] = assay: as above
Kv3.2 [6] = assay: as above
Kv1.3 (cloned) [7] = target: Kv1.3 (cloned) (UniProt P16390)
Kv1.3 (cloned) [8] = target: Kv1.3 (cloned) (UniProt P16390); remark: listed apart in the source
[9] = target: Kv1.1 (Mus musculus (Mouse)) (UniProt P16388); assay: patch-clamp, ratio of Kd values; reference ShK(L6) on Kv1.3
Kv1.1 = Kv1.1 (UniProt P16388)
Sequence of Kv1.1 (P16388 whole entry): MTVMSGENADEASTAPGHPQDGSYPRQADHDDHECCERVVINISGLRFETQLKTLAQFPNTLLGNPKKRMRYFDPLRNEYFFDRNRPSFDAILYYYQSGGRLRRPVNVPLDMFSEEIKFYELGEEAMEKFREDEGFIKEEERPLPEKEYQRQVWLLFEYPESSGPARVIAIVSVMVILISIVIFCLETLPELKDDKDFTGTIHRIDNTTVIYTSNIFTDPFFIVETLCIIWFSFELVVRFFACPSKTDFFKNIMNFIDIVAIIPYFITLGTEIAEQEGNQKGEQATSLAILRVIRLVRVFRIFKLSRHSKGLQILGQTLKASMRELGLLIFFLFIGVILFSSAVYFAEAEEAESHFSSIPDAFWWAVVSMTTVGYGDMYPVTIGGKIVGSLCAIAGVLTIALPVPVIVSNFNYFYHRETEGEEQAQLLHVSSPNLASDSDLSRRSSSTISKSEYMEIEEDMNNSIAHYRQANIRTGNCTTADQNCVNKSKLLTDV

Sequence of Kv3.2 (P22462 whole entry): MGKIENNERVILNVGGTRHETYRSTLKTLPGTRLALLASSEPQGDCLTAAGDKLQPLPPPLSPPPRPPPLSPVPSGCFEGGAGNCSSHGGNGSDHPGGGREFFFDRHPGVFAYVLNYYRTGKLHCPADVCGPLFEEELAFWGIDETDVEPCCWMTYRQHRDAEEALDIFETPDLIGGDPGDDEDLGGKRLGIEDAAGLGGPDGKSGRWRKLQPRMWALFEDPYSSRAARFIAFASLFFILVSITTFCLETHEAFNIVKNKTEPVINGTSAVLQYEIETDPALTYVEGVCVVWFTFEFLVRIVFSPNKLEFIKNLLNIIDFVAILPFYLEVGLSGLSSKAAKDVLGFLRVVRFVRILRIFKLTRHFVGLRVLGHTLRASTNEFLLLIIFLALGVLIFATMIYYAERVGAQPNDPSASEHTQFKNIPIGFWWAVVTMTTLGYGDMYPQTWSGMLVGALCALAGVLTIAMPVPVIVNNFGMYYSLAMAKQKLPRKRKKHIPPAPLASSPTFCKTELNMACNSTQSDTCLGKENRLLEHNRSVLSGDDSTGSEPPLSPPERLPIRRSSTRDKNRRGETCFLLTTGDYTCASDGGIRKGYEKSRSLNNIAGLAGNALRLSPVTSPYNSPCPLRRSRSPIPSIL
Sequence of Kv1.6 (P17658 whole entry): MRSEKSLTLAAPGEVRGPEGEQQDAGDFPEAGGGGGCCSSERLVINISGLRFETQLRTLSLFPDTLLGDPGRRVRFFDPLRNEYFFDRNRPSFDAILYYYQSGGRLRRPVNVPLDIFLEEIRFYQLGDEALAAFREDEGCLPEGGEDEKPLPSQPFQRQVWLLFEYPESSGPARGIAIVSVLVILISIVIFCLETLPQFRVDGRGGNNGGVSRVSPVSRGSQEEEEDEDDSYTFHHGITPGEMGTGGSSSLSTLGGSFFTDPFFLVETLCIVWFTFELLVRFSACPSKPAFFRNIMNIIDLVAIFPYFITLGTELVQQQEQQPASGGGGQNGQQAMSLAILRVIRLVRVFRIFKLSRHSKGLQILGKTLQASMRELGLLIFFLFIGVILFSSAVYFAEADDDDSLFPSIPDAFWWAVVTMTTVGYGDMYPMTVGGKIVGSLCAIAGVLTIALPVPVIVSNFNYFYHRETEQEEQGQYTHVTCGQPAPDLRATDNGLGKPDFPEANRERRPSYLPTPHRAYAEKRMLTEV
Sequence of Kv1.2 (P63142 whole entry): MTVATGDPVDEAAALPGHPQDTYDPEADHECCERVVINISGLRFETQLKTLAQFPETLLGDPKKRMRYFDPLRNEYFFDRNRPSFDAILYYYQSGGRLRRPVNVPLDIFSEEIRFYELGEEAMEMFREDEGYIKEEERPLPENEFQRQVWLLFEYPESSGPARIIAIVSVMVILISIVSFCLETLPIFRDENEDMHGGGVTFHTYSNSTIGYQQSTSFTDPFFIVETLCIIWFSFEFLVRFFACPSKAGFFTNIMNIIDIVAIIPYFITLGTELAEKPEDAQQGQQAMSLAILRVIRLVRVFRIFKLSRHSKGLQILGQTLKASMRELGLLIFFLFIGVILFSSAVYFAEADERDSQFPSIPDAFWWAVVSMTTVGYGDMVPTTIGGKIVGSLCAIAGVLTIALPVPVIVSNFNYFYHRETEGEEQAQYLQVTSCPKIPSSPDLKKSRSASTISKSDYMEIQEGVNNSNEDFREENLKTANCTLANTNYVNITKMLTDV
Sequence of Kv1.1 (Mus musculus (Mouse)) (P16388 whole entry): as the sequence (P16388 whole entry) above

ShK toxin (peptide)
Kd (Kv1.6 [1]): 0.2 nM
Kd (Kv1.2 [2]): 10 nM
Kd (Kv3.2 [3]): 5 nM

Margatoxin (from UniProt P40755 1-39) (peptide)
fold selectivity for Kv1.3 over this channel (Kv1.6 [4]): > 1000 fold
fold selectivity for Kv1.3 over this channel (Kv1.2 [5]): 5 fold
fold selectivity for Kv1.3 over this channel (Kv3.2 [6]): > 1000 fold
Kd (Kv1.6 [1]): > 100 nM
Kd (Kv1.2 [2]): 0.52 nM
Kd (Kv3.2 [3]): > 100 nM

ShK(L6)
Kd (Kv1.3 (cloned) [7]): 0.01 nM

ShK(D5)
Kd (Kv1.3 (cloned) [8]): 1.1 nM

ShK(L6) (peptide)
fold selectivity for Kv1.3 over this channel [9]: 11 fold

ShK-F6CA
Kd (Kv1.1): 4 nM
